What all share (type): cell-based
Test [1] deals with Gli3. Kind of test: Localization of GFP-GLI3 in cultured U373MG cells. The note with it: 24 hours after transfection, 100 cells counted. As for the experimental part: COS7-HELA- and U373MG-cells were transfected using PolyFect Transfection Reagent (Qiagen, cat. no. 301107) according to the manufacturer's instructions. Gli3 cDNA was cloned into pEGFP-C1 and pEGFP-N3 vectors (Clontech) respectively. 100 transfected cells per experiment (Gli3-GFP, GFP-Gli3, Gli3-GFP+myc-MID1, GFP-Gli3+myc-MID1, Gli3-GFP+myc-BBox1, GFP-Gli3+myc-BBox1) were counted and analysed for Gli3 localization. Experiments were repeated twice. […] PCMV-Tag3 vector from Stratagene was used for myc-MID1 and myc-BBox1 overexpression.

In test [2] the test system is PP2A. Put plainly: Cytosolic PP2A in 293 cells expressing MID1-V5, Western blot. As to conditions: 293 cells expressing MID1-V5 versus control cells. The method, then:
Immunoprecipitation, western blotting and immunofluorescence. For COS7 cells, we lysed in IP1 buffer 8×10^6 cells transfected with pBudCE4 vector carrying the respective cDNAs. After preclearing the lysate with 50 μl protein A-agarose (slurry), we incubated supernatants with 2 μg anti-V5 overnight at 4° C. and then for 2 h with 75 μl (slurry) protein A-agarose. After three washes in IP1 buffer, we eluted the proteins with 1× Laemmli buffer at 95° C. MID1-V5 expression was optimal 48 h after doxycyclin removal from 293 tet-off cell lines. We then lysed cells in IP1 buffer and carried out immunoprecipitation with 2 μg anti-V5. We boiled proteins in 1×SDS-PAGE buffer, separated them on 10% and 12% SDS gels, blotted on PVDF membranes (Roche) and blocked and incubated with the respective primary antibody according to the manufacturer's instructions.
If so, increased MID1 expression should coincide with a decrease of cytosolic PP2A. To test this hypothesis, we analyzed lysates containing equal amounts of protein from 293 cells expressing MID1-V5 (FIG. 4a, lane1) and control cells (FIG. 4a, lane 3) by western blotting with a polyclonal antibody that detects the C subunit of PP2A.
On the technique in general: Immunoblotting shows a protein as a band on a membrane.

For test [3], the system named is PP2A. Put plainly: Ubiquitin-dependent regulation of PP2A in embryonic fibroblasts, Western blot. As to conditions: OS-derived cells. The method, then: Tissue culture. We obtained embryonic fibroblasts from the Max-Planck Institute for Cell Biology (Ladenburg, Germany) and purchased COS7 cells from the American Type Culture Collection (ATCC). Establishment of an embryonic fibroblast cell line from an OS-affected fetus has been described previously^4. We transfected COS7 cells following the Clontech protocol using LipofectACE. Expression was optimal 24-48 h after transfection. […] We determined integration copy number by Southern blot analysis. […]
For proteasome inhibition, we incubated embryonic fibroblasts with varying concentrations (10-50 μM) of LLnL (Sigma) for 2 h or with 10 μM of lactacystin (Sigma) for 5 h. […] Protein concentrations were determined with a Bradford assay. […]
For embryonic fibroblasts, we lysed 8×10^6 cells in IP1 buffer. […] We carried out densitometric quantification using the PCB computer program.
To obtain direct evidence for ubiquitin-dependent regulation of cytosolic PP2A, we analyzed amounts of cytosolic PP2A in embryonic fibroblasts, previously shown to contain large amounts of endogenous MID1 (ref. 2), after treatment with the proteasome inhibitor LLnL (FIG. 4b).

Test [4] relates to Gli3. Kind of test: Localization of overexpressed GFP-tagged Gli3 in HeLa cells. As to conditions: GFP-tagged Gli3-overexpressing HeLa cells. As for the experimental part:
1×10^5 HELA cells per well of a 6-well plate were transfected with Qiagen Polyfect transfection reagent according to the manufacturer's instructions. The ratio of the amount of DNA to the amount of polyfect transfection reagent was 3 μg DNA/10 μl Polyfect. Constructs used for expression in HELA were the following: GFP-GLI3 (aa 18-1549), GLI3-GFP (aa 1-1522), MYC-GLI3 (aa 18-1596), FLAG-GLI3 (aa18-1596), MYC-B-BOX1 (aa 110-167 of the MID1 protein), ALPHA4-V5 (aa 1-339). 24 h after transfection immunofluorescence was performed. GFP-constructs were treated as described in Schweiger et al., 1999. Immunofluorescence with MYC-tagged and FLAG-tagged constructs was done according to Trockenbacher et al., 2001. FLAG-tagged constructs were detected with anti-FLAG-antibody diluted 1:500, the secondary antibody FITC-antimouse was diluted 1:1000. For MYC-tagged constructs anti-MYC-antibody 1:300 and CY3-antirabbit 1:1000 were used. […]
Overexpressed Gli3 is predominantly localized in the nucleus (FIG. 10, top left).

In another test the test system is patched gene. Kind of test: Patched-specific semiquantitative RT-PCR of HeLa cells. As to conditions: compared to mock-transfected cells. As for the experimental part: One of the most important targets of the Gli3 transcription factor is the patched gene. In order to analyse HeLa cells for Gli3 activity after treatment with the different molecules, semiquantitative RT-PCR of cells overexpressing the B-Box1 and the α4 protein was carried out (FIG. 13). HeLa cells have previously been tested for Gli3-, Gli1 (another target of the Gli3 transcription factor) and patched-expression.

Entries after “also recorded” stand apart in the source; their conditions may differ.

B1: MID1: RING-finger protein that interacts with the α4 subunit of microtubule associated PP2Ac; overexpressed from cDNA (protein)
chain: METLESELTCPICLELFEDPLLLPCAHSLCFNCAHRILVSHCATNESVESITAFQCPTCRHVITLSQRGLDGLKRNVTLQNIIDRFQKASVSGPNSPSETRRERAFDANTMTSAEKVLCQFCDQDPAQDAVKTCVTCEVSYCDECLKATHPNKKPFTGHRLIEPIPDSHIRGLMCLEHEDEKVNMYCVTDDQLICALCKLVGRHRDHQVAALSERYDKLKQNLESNLTNLIKRNTELETLLAKLIQTCQHVEVNASRQEAKLTEECDLLIEIIQQRRQIIGTKIKEGKVMRLRKLAQQIANCKQCIERSASLISQAEHSLKENDHARFLQTAKNITERVSMATASSQVLIPEINLNDTFDTFALDFSREKKLLECLDYLTAPNPPTIREELCTASYDTITVHWTSDDEFSVVSYELQYTIFTGQANVVSLCNSADSWMIVPNIKQNHYTVHGLQSGTKYIFMVKAINQAGSRSSEPGKLKTNSQPFKLDPKSAHRKLKVSHDNLTVERDESSSKKSHTPERFTSQGSYGVAGNVFIDSGRHYWEVVISGSTWYAIGLAYKSAPKHEWIGKNSASWALCRCNNNWVVRHNSKEIPIEPAPHLRRVGILLDYDNGSIAFYDALNSIHLYTFDVAFAQPVCPTFTVWNKCLTIITGLPIPDHLDCTEQLP
modifications: left off: large carriers
notes: overexpressed from cDNA
B1: the GFP-GLI3 localization result in the test with Gli3 [1] is “No change”. The “Cytosolic phosphatase 2A level” value in the test with PP2A [2] was “downregulated”. Moreover, in the test with PP2A [3], the “PP2Ac amount after transfection” value is recorded as “normalizes the amount of PP2Ac”.

B2: α4: regulatory subunit of PP2A encoded by human IGBP1, overexpressed (protein, UniProt P78318 2-339, looked up)
Immunoglobulin-binding …: AAEDELQLPRLPELFETGRQLLDEVEVATEPAGSRIVQEKVFKGLDLLEKAAEMLSQLDLFSRNEDLEEIASTDLKYLLVPAFQGALTMKQVNPSKRLDHLQRAREHFINYLTQCHCYHVAEFELPKTMNNSAENHTANSSMAYPSLVAMASQRQAKIQRYKQKKELEHRLSAMKSAVESGQADDERVREYYLLHLQRWIDISLEEIESIDQEIKILRERDSSREASTSNSSRQERPPVKPFILTRNMAQAKVFGAGYPSLPTMTVSDWYEQHRKYGALPDQGIAKAAPEEFRKAAQQQEEQEEKEEEDDEQTLHRAREWDDWKDTHPRGYGNRQNMG
modifications: V5 tag
notes: regulatory subunit of PP2A encoded by human IGBP1, overexpressed
On to B2, for which, in the test with Gli3 [4], the Gli3 localization result is given as “significant release of GFP-Gli3 to the nucleus”. Further, in the test on patched gene, the patched message entry is given as “increased amount of PCR-product; also recorded: increase of the patched message”.

The values are drawn from patent publication US8202696B2, “Means for use in treating diseases correlated with or caused by non-physiological levels of microtubule-associated PP2Ac” (Max-Planck-Gessellschaft zur Forderung der Wissenschaften …, priority 2002, dated 2012).
